What was measured:
Conditions in all cases: chain copies: 2; label: tethered by stalled RNA polymerase
[1] = target: T1, MS2 coat protein, dlFG mutant (Escherichia phage MS2, UniProt P03612, del68-81insG); test: 4 mM Mg2+; miR-208a RNA 100 nM (AU…UUGU); RNA-MaP array; 100 mM Tris-HCl pH 7.5, 80 mM KCl, 4 mM MgCl2, 0.1 mg/mL BSA, 1 mM DTT, 0.01 mg/mL yeast tRNA, 0.01% Tween-20; protein 1.5 nM to 3 uM; 37 C (Table S3)
[2] = target: T1, MS2 coat protein, dlFG mutant; test: 4 mM Mg2+; no ligand; RNA-MaP array; 100 mM Tris-HCl pH 7.5, 80 mM KCl, 4 mM MgCl2, 0.1 mg/mL BSA, 1 mM DTT, 0.01 mg/mL yeast tRNA, 0.01% Tween-20; protein 1.5 nM to 3 uM; 37 C (Table S3)
[3] = target: T1, MS2 coat protein, dlFG mutant; test: 4 mM Mg2+; theophylline 2 mM; RNA-MaP array; 100 mM Tris-HCl pH 7.5, 80 mM KCl, 4 mM MgCl2, 0.1 mg/mL BSA, 1 mM DTT, 0.01 mg/mL yeast tRNA, 0.01% Tween-20; protein 1.5 nM to 3 uM; 37 C (Table S3)
[4] = target: T1, MS2 coat protein, dlFG mutant; test: 4 mM Mg2+; L-tryptophan 2.4 mM; RNA-MaP array; 100 mM Tris-HCl pH 7.5, 80 mM KCl, 4 mM MgCl2, 0.1 mg/mL BSA, 1 mM DTT, 0.01 mg/mL yeast tRNA, 0.01% Tween-20; protein 1.5 nM to 3 uM; 37 C (Table S3)
[5] = target: T1, MS2 coat protein, dlFG mutant; test: 4 mM Mg2+; FMN 200 uM; RNA-MaP array; 100 mM Tris-HCl pH 7.5, 80 mM KCl, 4 mM MgCl2, 0.1 mg/mL BSA, 1 mM DTT, 0.01 mg/mL yeast tRNA, 0.01% Tween-20; protein 1.5 nM to 3 uM; 37 C (Table S3)

B1: Eterna 15995 (Sensor v3, turn-off variant 1) (ssRNA)
RNA: UAUUAGCAAGCAAGGUCCCACAUGAGGAUCACCCAUGUGCUCGUCUUAUAAGGUACUGUGACGAAAGUCACGGUACC
[1]
  Kd: 426 nM

B2: Eterna 10232 (Sensor for hsa-mir-208a) (ssRNA)
RNA: AACCAACAAAUAAAACAAGCGUGCUCGUCACAUGAGGAUCACCCAUGUUUAAGCGCUAUUCCUACUUCCUCAGCGCC
[1]
  Kd: 30.4 nM

B3: Eterna 1200 (Exclusion - Tryptophan A) (ssRNA)
RNA: UGGAGUGCCUGGUCGUCACUAUGCCAACCACGAGGACCGGUACGGCCGCCACUCGUGAGGGAUAUUCAGAAAGUGAUGUUUUUUG
[2]
  Kd: > 3000 nM

B4: Eterna 7618834 (Exclusion - Theophylline A) (ssRNA)
RNA: AGACAUGAGGAUCACCCAUGUAGUAUGGAUACCAGAUCCAGAUUUAUCCCUUGGCAGCUGUGGUACAGCGUUGGAUCGCUCCUAG
[3]
  Kd: 29.4 nM

B5: Eterna 6395988 (Inverted Same State NG 2) (ssRNA)
RNA: GUCUGAUUGUAGAAGGUACUUAAUACUCAUGUAACAUGAGGAUCACCCAUGUAUCAACAAUAUUGUAAGGAUAUACAAAUCUCA
[2]
  Kd: 576 nM

B6: Eterna 6444365 (Inverted Same State NG 3) (ssRNA)
RNA: AGAUUUGUACAUGAGGAUCACCCAUGUUAAUAGGUGGUUGUCAGAAGGCAUUAUUAGAGUUUUAAUGAGGAUAUGAAUUUACAA
[2]
  Kd: 974 nM

B7: Eterna 10111 (Sensor for hsa-mir-208a version 2) (ssRNA)
RNA: AAUUAUUAACAUGAGGAUCACCCAUGUAAAACAUGGAUUAACAAGCCUUUUCGUUUUUGCUCGUCUUAUAUUAUUAA
[1]
  Kd: 135 nM

B8: Eterna 7678744 (Same State - Tryptophan A) (ssRNA)
RNA: ACAGGAUCGAAAGAUCCUGAGCAGUCAAAACGAGGACCGGUACGGCCGCCACUCGAAUAAGAGAGUGAUGUUCUCGACUGCAAAA
[2]
  Kd: > 3000 nM

B9: Eterna 7687214 (Same State - Theophylline B) (ssRNA)
RNA: UCGUGUAUAUCGGAUACCAGUGAAAACGAUACAUGAGGAUCACCCAUGUGAGUUGAUGUACACCCUUGGCAGCUGUAUAUAUCUA
[3]
  Kd: 15.1 nM

## UUUAAUGAGGGAACUGCUUAGUUU (ssRNA) [Eterna 5 (OligoOldBControl)]
[2]
  Kd: > 3000 nM

B10: Eterna 7745661 (Exclusion - FMN B) (ssRNA)
RNA: AGACUACUGAUAGGAUAUAACAUCCUAGUCGUAUACCGAAAGGUAUACGAUUCCCUUCUAGUGAUGUUAGAAGGGUCGGUAGUCA
[2]
  Kd: > 3000 nM

B11: Eterna 7690517 (Same State - Theophylline B) (ssRNA)
RNA: AAUUUAUUAUCUGAUACCAGACUUUUUCUUGUUUAUAAGUCAAGUGAUGUUUGACUUUUAGUCCCUUGGCAGCAGUAUUUUUUAA
[2]
  Kd: > 3000 nM

B12: Eterna 7733059 (Exclusion - Tryptophan B) (ssRNA)
RNA: GGAGUCGGCACGGCCGCCACUGCGGUGGUGUGACAUGAGGAUCACCCAUGUUGUCAUGCGGCCCUUAGGACCGGGUGGCGGUUCC
[4]
  Kd: 57 nM

## UUUGUUGCCAGUGAUGUUGGCAACUUU (ssRNA) [Eterna 11 (K4-alt7bp_control)]
[2]
  Kd: > 3000 nM

B13: Eterna 7636321 (Exclusion - Theophylline B) (ssRNA)
RNA: CAUUAUGUAACUGAUACCAGUGUACUGACAUGAGGAUCACCCAUGUUGGGUUUUGUUGUACACCCUUGGCAGCAGAAUCAUAAUG
[3]
  Kd: 90.9 nM

B14: Eterna 6120996 (Same State NG 1) (ssRNA)
RNA: GGUCCAGCAUGAGGAUAUGGCACCUUAUUGGUGCCAGAAGGCAUGUCUAUAGACAUGAGGAUCACCCAUGUAAUAAAUUGGACC
[2]
  Kd: 646 nM

B15: Eterna 5997882 (Exclusion 5) (ssRNA)
RNA: CAGCCCUGAGGAUAUCCCUACUUGUACAUGAGGAUCACCCAUGUCCUCCUCCGGGCUUCGGGAGAAGGCAGGUCUC
[5]
  Kd: 18.5 nM

B16: Eterna 7639661 (Exclusion - Theophylline B) (ssRNA)
RNA: AUUUAUAGUUGUGAUACCAGACUUACAUGAGGAUCACCCAUGUUACUUAAAUGUUUUGAUGUCCCUUGGCAGCACUGUUUUUUUA
[3]
  Kd: 14 nM

B17: Eterna 7755473 (Exclusion - Arginine A) (ssRNA)
RNA: UCCUUUGUUGCCAGUGAUGUUGGACAGGAAGGAGCGGGCAUAAGCCCAGGUAGGUCGCCUGUCAACUUUCUUAUAGCCCGAAGGU
[2]
  Kd: > 3000 nM

B18: Eterna 7629678 (Same State - Theophylline A) (ssRNA)
RNA: UUCUACAUGAGGAUCACCCAUGUAAACGAUACCAGACGAGUAUUAGUCCCUUGGCAGCGUAGAGUGUCGUUUAUAGUAGGAUACC
[3]
  Kd: 28.4 nM

B19: Eterna 5921244 (Exclusion NG 2) (ssRNA)
RNA: AUUAUAUAGGAAGGAUAUAGAAUAUUAUUUUAACAUGAGGAUCACCCAUGUAACCUUAUGUGUAGCUAGAAGGUCCAUUUGUUA
[2]
  Kd: 224 nM

B20: Eterna 7740407 (Exclusion - Tryptophan A) (ssRNA)
RNA: AAGCAGUCACUCGAAACCAUCGAAGAUGGACGAGGACCGGUACGGCCGCCACUCGGAGUGAUGUUCCGAAGACUGCAAAAUAAAA
[2]
  Kd: > 3000 nM

B21: Eterna 5956610 (Same State NG 2) (ssRNA)
RNA: UGGCUGAGUCGAGGAUAUGAUCUUCAUAUAAUAACAUGAGGAUCACCCAUGUAUAAUUACAUGGAUCAGAAGGCGACUCAGCCA
[2]
  Kd: 662 nM
